Laboratory results from US20200190507A1, “Encoded Solid Phase Compound Library with Polynucleotide Based Barcoding” (The Scripps Research Institute, priority 2016, published 2020).
Entries after “also recorded” stand apart in the source; their conditions may differ.

Tested on: ATB serum IgGs
Experiment: Antigen competition binding analysis with beads displaying 2-B
Design: species or system human
Conditions: for competition with 2-B for binding ATB serum IgGs: pooled ATB serum, beads displaying 2-B, CFP 250 μg/mL

Molecule | competition with 2-B for binding ATB serum IgGs | ATB IgG binding of Ag85B relative to Ag85A (competition titration with 2-B beads)
recombinant Ag85B: Mycobacterium tuberculosis recombinant protein reference standard Ag85B, expressed in E. coli (protein) FSRPGLPVEYLQVPSPSMGRDIKVQFQSGGNNSPAVYLLDGLRAQDDYNGWDINTPAFEWYYQSGLSIVMPVGGQSSFYSDWYSPACGKAGCQTYKWETFLTSELPQWLSANRAVKPTGSAAIGLSMAGSSAMILAAYHPQQFIYAGSLSALLDPSQGMGPSLIGLAMGDAGGYKAADMWGPSSDPAWERNDPTQQIPKLVANNTRLWVYCGNGTPNELGGANIPAEFLENFVRSSNLKFQDAYNAAGGHNAVFNFPPNGTHSWEYWGAQLNAMKGDLQSSLGAG | no binding competition; also recorded: unreactive; also recorded: did not compete | –
Ag85B: Mycobacterium tuberculosis purified native protein Ag85B (Gene Rv1886c), Strain H37Rv (protein) FSRPGLPVEYLQVPSPSMGRDIKVQFQSGGNNSPAVYLLDGLRAQDDYNGWDINTPAFEWYYQSGLSIVMPVGGQSSFYSDWYSPACGKAGCQTYKWETFLTSELPQWLSANRAVKPTGSAAIGLSMAGSSAMILAAYHPQQFIYAGSLSALLDPSQGMGPSLIGLAMGDAGGYKAADMWGPSSDPAWERNDPTQQIPKLVANNTRLWVYCGNGTPNELGGANIPAEFLENFVRSSNLKFQDAYNAAGGHNAVFNFPPNGTHSWEYWGAQLNAMKGDLQSSLGAG | compete strongly | ~10 fold
